# Source: patent EP4796128A1, “ANTI-C-MET ANTIBODY-DRUG CONJUGATE COMPRISING CAMPTOTHECIN DERIVATIVE” (Celltrion, Inc., priority 2023, dated 2025)
# Several values for one entry are separate records, joined by “and”; a condition that tells them apart may be missing. Identical values can stand only once.
# B1: P23-PBX-7016: isotype ADC: anti-influenza A antibody (Navivumab, P23) conjugated with mc-GGFG-PBX-7016; DAR 8 (conjugate, chains of the INN, looked up)
# VH: QVQLVQSGAEVKKPGASVKVSCKTSGYSFSTYGVSWVRQAPGQGPEWVGWISAYTGITDYAQKFQGRVTLTTDATTATAFLDLRSLRPDDTATYFCARDKVQGRVEVGSGGRHDYWGQGTLVIVSS
# VL: EVVLTQSPGTLALPPGERATLSCRASHRVGSTYIAWYQQKSGQAPRRLIYGASNRATDIPDRFSGSGSGTDFTLTIRRLEPEDSAVYYCQQFSVSPWTFGQGTRVEIK
# modifications: mc-GGFG-PBX-7016 payload, DAR 8
# What was measured:
# Type in all cases: in vivo, BALB/c nude mice
# [1] = tested on: LU-01-0439 human lung cancer xenograft; assay: LU-01-0439 human lung cancer xenograft (PDX) model; conditions: 10 mg/kg i.v. QW × 2 weeks
# Description: It was aimed to confirm the anticancer effect of the ADC of the present invention from the LU-01-0439 human lung cancer xenograft model of BALB/c nude mice (Zhejiang Vital River Laboratory Animal Technology Co., LTD.).
# The lung cancer PDX model of LU-01-0439 was generated by transplanting surgically resected clinical samples into immunodeficient mice and was established as passage 0 (P0). Then, the cells were subcultured through serial transplantation, and the passage after P0 was defined as passage 1 (P1). The tumor recovered from the frozen P2 tumor tissue was designated as FP3, and finally, FP4 tumor tissue was prepared for the experiment.
# Mice were randomly assigned to groups of eight each, and tumors were implanted into the mice according to the experimental conditions shown in Table 14 below. Specifically, LU-01-0439 FP4 tumor fragments (20-30 mm^3) were subcutaneously implanted into the right flank of each mouse. Treatment was started on day 24 after tumor transplantation, when the mean tumor volume reached 175 mm^3, and the treatment start date was set as Day 0. This experiment was performed for 35 days.
# The tumor size was measured using the same method as in Experimental Example 3-1 above.
# (§1) Statistical analysis was performed on the data obtained 35 days after the start of the experiment to determine differences in tumor volume and tumor weight between groups. […] All data were analyzed using SPSS 29.0. p < 0.05 was considered statistically significant.
# [2] = tested on: NCI-H441 human lung cancer xenograft; assay: NCI-H441 human lung cancer xenograft model; conditions: 3 mg/kg i.v. QW × 2 weeks
# Description: NCI-H441 tumor cells (ATCC, Catalog No. HTB-174) were maintained in vitro in RPMI 1640 medium supplemented with 10% FBS and 1% antibiotic-antimycotic at 37°C and 5% CO2 in air. Tumor cells NCI-H441 were routinely passaged twice a week by treatment with trypsin-EDTA. The cells with exponential growth were harvested and counted for tumor inoculation.
# Mice were randomly assigned to groups of 10 each, and tumor cells were inoculated into the mice according to the experimental conditions shown in Table 19 below. Specifically, NCI-H441 tumor cells (5 × 10^6 cells/mouse) were subcutaneously inoculated into the right flank of each mouse together with 0.2 mL of PBS containing Matrigel (1:1). Treatment was started on day 14 after inoculation, when the mean tumor volume reached 180 mm^3, and the treatment start date was set as day 0. This experiment was performed for 35 days.
# as §1
# [3] = tested on: Hs746T human gastric cancer xenograft; assay: Hs746T human gastric cancer xenograft model; conditions: for TGI: Day 13; for T/C: Day 13, tumor volume vs P23 isotype mAb group
# Description: Hs746T tumor cells (ATCC, Catalog No. HTB-135) were cultured as a monolayer in DMEM medium supplemented with 10% FBS and 1% antibiotic-antimycotic at 37°C in an atmosphere of 5% CO2 in air. Tumor cells (Hs746T) were routinely passaged three times a week by treating with trypsin-EDTA. The cells with exponential growth were harvested and counted for tumor inoculation.
# Mice were randomly assigned to groups of six each, and tumor cells were inoculated into the mice according to the experimental conditions shown in Table 9 below. Specifically, Hs746T tumor cells (2 × 10^6 cells/mouse) were subcutaneously inoculated into the right flank of each mouse together with 0.1 mL of PBS containing Matrigel. The teatment was started on day 15 after inoculation, when the average tumor volume reached 197 mm^3, and the date when the treatment started was set as Day 0. This experiment was performed for 27 days.
# The experimental endpoints were set when tumor growth stopped or the mice were cured. The size and volume of the tumor were measured twice a week in two and three dimensions using calipers, and these were used to calculate the T/C (tumor volume over control volume) and TGI (tumor growth inhibition) values.
# In the T/C values (%) above, T and C represent the average volume of the experimental group and the control group on a specific day, respectively, and the T/C value is an index for the antitumor effect.
# The TGI values were calculated using the following equation, where Ti is a mean tumor volume of the treatment group on a specific date, T0 is a mean tumor volume of the treatment group on the first day of treatment, Vi is a mean tumor volume of the vehicle control group on the same day as Ti, and V0 is a mean tumor volume of the vehicle group on the first day of treatment. TGI (%) = [1−(Ti−T0)/(Vi−V0)] × 100 [formula]
# All data were analyzed using SPSS 29.0. p < 0.05 was considered statistically significant.
# [4] = Day 35, tumor volume vs P23 isotype mAb group
# [5] = Day 35, tumor weight vs P23 isotype mAb group
molecule,measurement,setting,value
B1,Tumor Volume,"[1]; Day 0, mean ± SEM",175 ± 15 mm^3
same,Tumor Volume,"[1]; Day 3, mean ± SEM",209 ± 22 mm^3
same,Tumor Volume,"[1]; Day 7, mean ± SEM",238 ± 22 mm^3
same,Tumor Volume,"[1]; Day 10, mean ± SEM",247 ± 19 mm^3
same,Tumor Volume,"[1]; Day 14, mean ± SEM",217 ± 18 mm^3
same,Tumor Volume,"[1]; Day 17, mean ± SEM",217 ± 28 mm^3
same,Tumor Volume,"[1]; Day 21, mean ± SEM",205 ± 42 mm^3
same,Tumor Volume,"[1]; Day 24, mean ± SEM",263 ± 61 mm^3
same,Tumor Volume,"[1]; Day 28, mean ± SEM",393 ± 90 mm^3
same,Tumor Volume,"[1]; Day 31, mean ± SEM",536 ± 117 mm^3
same,TGI,[1]; Day 35,64.62%
same,Tumor Weight on Day 35,[1]; Day 35,0.561 ± 0.117 g
same,Tumor Volume,"[1]; Day 35, mean ± SEM",630 ± 137 mm^3
same,T/C,[1]; [4],43.11%
same,T/C,[1]; [5],42.93%
same,Tumor Volume,"[2]; Day 0, mean ± SEM",180 ± 13 mm^3
same,Tumor Volume,"[2]; Day 4, mean ± SEM",198 ± 16 mm^3
same,Tumor Volume,"[2]; Day 7, mean ± SEM",171 ± 14 mm^3
same,Tumor Volume,"[2]; Day 11, mean ± SEM",140 ± 14 mm^3
same,Tumor Volume,"[2]; Day 14, mean ± SEM",131 ± 14 mm^3
same,Tumor Volume,"[2]; Day 18, mean ± SEM",134 ± 15 mm^3
same,Tumor Volume,"[2]; Day 21, mean ± SEM",138 ± 17 mm^3
same,Tumor Volume,"[2]; Day 25, mean ± SEM",155 ± 20 mm^3
same,Tumor Volume,"[2]; Day 28, mean ± SEM",190 ± 33 mm^3
same,Tumor Volume,"[2]; Day 32, mean ± SEM",235 ± 42 mm^3
same,TGI,[2]; Day 35,91.34%
same,Tumor Weight on Day 35,[2]; Day 35,0.318 ± 0.059 g
same,Tumor Volume,"[2]; Day 35, mean ± SEM",303 ± 54 mm^3
same,T/C,[2]; [4],19.00%
same,T/Cweight,[2]; [5],19.05%
same,Tumor Volume,"[3]; 0.3 mg/kg i.v. single dose, Day 0, mean ± SEM",197 ± 24 mm^3
same,Tumor Volume,"[3]; 0.3 mg/kg i.v. single dose, Day 3, mean ± SEM",309 ± 37 mm^3
same,Tumor Volume,"[3]; 0.3 mg/kg i.v. single dose, Day 6, mean ± SEM",512 ± 87 mm^3
same,Tumor Volume,"[3]; 0.3 mg/kg i.v. single dose, Day 10, mean ± SEM",873 ± 170 mm^3
same,TGI,[3]; 0.3 mg/kg i.v. single dose,26.87%
same,T/C,[3]; 0.3 mg/kg i.v. single dose,76.49%
same,Tumor Volume,"[3]; 0.3 mg/kg i.v. single dose, Day 20, mean ± SEM",2149 ± 475 mm^3
same,Tumor Volume,"[3]; 0.3 mg/kg i.v. single dose, Day 27, mean ± SEM","2,175 ± 874 (n = 3) mm^3"
same,Tumor Volume,"[3]; 1 mg/kg i.v. single dose, Day 0, mean ± SEM",197 ± 24 mm^3
same,Tumor Volume,"[3]; 1 mg/kg i.v. single dose, Day 3, mean ± SEM",298 ± 36 mm^3
same,Tumor Volume,"[3]; 1 mg/kg i.v. single dose, Day 6, mean ± SEM",476 ± 80 mm^3
same,Tumor Volume,"[3]; 1 mg/kg i.v. single dose, Day 10, mean ± SEM",807 ± 171 mm^3
same,TGI,[3]; 1 mg/kg i.v. single dose,27.98%
same,T/C,[3]; 1 mg/kg i.v. single dose,75.52%
same,Tumor Volume,"[3]; 1 mg/kg i.v. single dose, Day 20, mean ± SEM","2,089 ± 416 mm^3"
same,Tumor Volume,"[3]; 3 mg/kg i.v. single dose, Day 0, mean ± SEM",197 ± 23 mm^3
same,Tumor Volume,"[3]; 3 mg/kg i.v. single dose, Day 3, mean ± SEM",281 ± 55 mm^3
same,Tumor Volume,"[3]; 3 mg/kg i.v. single dose, Day 6, mean ± SEM",318 ± 72 mm^3
same,Tumor Volume,"[3]; 3 mg/kg i.v. single dose, Day 10, mean ± SEM",308 ± 80 mm^3
same,TGI,[3]; 3 mg/kg i.v. single dose,84.88%
same,Tumor Volume,"[3]; 3 mg/kg i.v. single dose, Day 13, mean ± SEM",405 mm^3 and 405 ± 125 mm^3
same,T/C,[3]; 3 mg/kg i.v. single dose,25.71%
same,Tumor Volume,"[3]; 3 mg/kg i.v. single dose, Day 17, mean ± SEM",669 ± 192 mm^3
same,Tumor Volume,"[3]; 3 mg/kg i.v. single dose, Day 20, mean ± SEM",826 ± 223 mm^3
